These results are taken from article PMC3857177 (PLoS ONE, 2013).

Sequences and labels used below:
B2: human Shrm2 SD2 domain (1427–1610), untagged (domain or fragment, UniProt Q13796 1427-1610, looked up)
chain: SDLDHDLSVKKQELIESISRKLQVLREARESLLEDVQANTVLGAEVEAIVKGVCKPSEFDKFRMFIGDLDKVVNLLLSLSGRLARVENALNNLDDGASPGDRQSLLEKQRVLIQQHEDAKELKENLDRRERIVFDILANYLSEESLADYEHFVKMKSALIIEQRELEDKIHLGEEQLKCLLDSL
notes: Shroom2 (Shrm2), human, Shrm Domain 2 (SD2), residues 1427-1610; Cloned into pET151/D-TOPO (His6 removable with TEV); called untagged in the pull-down; also called Shrm SD2; human Shroom2 SD2; source: E. coli BL21(DE3) Codon+(RILP), purified; not shown: His6, N-terminal, cleaved
B3: human Rock1 707–946, 900ESE902 to alanine (domain or fragment, UniProt Q13464 707-946, looked up)
chain: EAKSVAMCEMEKKLKEEREAREKAENRVVQIEKQCSMLDVDLKQSQQKLEHLTGNKERMEDEVKNLTLQLEQESNKRLLLQNELKTQAFEADNLKGLEKQMKQEINTLLEAKRLLEFELAQLTKQYRGNEGQMRELQDQLEAEQYFSTLYKTQVKELKEEIEEKNRENLKKIQELQNEKETLATQLDLAETKAAAAQLARGLLEEQYFELTQESKKAASRNRQEITDKDHTVSRLEEANS
notes: source: E. coli BL21(DE3) codon plus (RIPL), purified; not shown: His6, N-terminal, cleaved
B4: human Shrm2 SD2 domain (1427–1610), N-terminally labelled with Oregon Green 488 (domain or fragment, UniProt Q13796 1427-1610, looked up)
chain: SDLDHDLSVKKQELIESISRKLQVLREARESLLEDVQANTVLGAEVEAIVKGVCKPSEFDKFRMFIGDLDKVVNLLLSLSGRLARVENALNNLDDGASPGDRQSLLEKQRVLIQQHEDAKELKENLDRRERIVFDILANYLSEESLADYEHFVKMKSALIIEQRELEDKIHLGEEQLKCLLDSL
modifications: Oregon Green 488 (succinimidyl ester) on the N-terminus, labelling essentially 1:1
notes: Shroom2 (Shrm2), human, Shrm Domain 2 (SD2), residues 1427-1610; Same construct as m1, with the fluorophore; also called Shrm2 SD2-Oregon Green 488; Oregon-Green labeled human Shrm2 SD2 domain; source: E. coli BL21(DE3) Codon+(RILP), purified, then labelled

Data set [1] has as its target T1, human Shrm2 SD2 domain (1427–1610), N-terminally labelled with Oregon Green 488 (human, UniProt Q13796 1427-1610, Oregon Green 488 (succinimidyl ester) on the N-terminus, labelling essentially 1:1).
T1 chain: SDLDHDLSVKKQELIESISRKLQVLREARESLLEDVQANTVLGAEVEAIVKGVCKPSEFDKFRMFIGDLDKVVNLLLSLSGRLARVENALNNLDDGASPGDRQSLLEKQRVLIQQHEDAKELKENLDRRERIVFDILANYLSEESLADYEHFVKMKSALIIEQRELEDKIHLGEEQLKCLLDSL
The experiment in a line: FP.

In data set [2] the target is T2, human Rock1 707–946, SBD^SER variant (human, UniProt Q13464 707-946, triple alanine mutation, 884EKE886).
T2 construct: source: E. coli BL21(DE3) codon plus (RIPL), purified; not shown: His6, N-terminal, cleaved
T2 sequence (looked up): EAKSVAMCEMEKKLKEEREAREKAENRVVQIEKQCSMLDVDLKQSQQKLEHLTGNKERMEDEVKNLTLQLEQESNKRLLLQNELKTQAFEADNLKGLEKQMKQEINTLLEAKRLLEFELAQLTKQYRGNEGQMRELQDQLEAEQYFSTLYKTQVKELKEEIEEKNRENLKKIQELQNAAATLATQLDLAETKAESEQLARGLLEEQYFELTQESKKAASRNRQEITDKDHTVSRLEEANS
In words: native gel or EMSA; 10 µM Rock1 707–946 (wild type or mutant) mixed with 10 µM human Shrm2 SD2, 20 min room temperature; 12% native PAGE at 4°C, Coomassie. To be noted: both partners purified. (In general: Mobility shift assays separate free from complexed probe on a gel.)

Data set [3] deals with T3, human Rock1 707–946, wild type (human, UniProt Q13464 707-946).
T3 construct: also called wild-type Rock1 SBD; not shown: His6, N-terminal, cleaved
T3 sequence (looked up): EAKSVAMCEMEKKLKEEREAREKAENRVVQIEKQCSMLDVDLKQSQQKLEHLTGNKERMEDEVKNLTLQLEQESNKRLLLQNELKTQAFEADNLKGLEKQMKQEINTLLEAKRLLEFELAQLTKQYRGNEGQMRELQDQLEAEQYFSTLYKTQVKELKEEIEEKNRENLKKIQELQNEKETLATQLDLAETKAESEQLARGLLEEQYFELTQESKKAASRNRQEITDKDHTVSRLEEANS
The description is as above. To be noted: both partners purified.

The target in data set [4] is B3. The description is as above. Conditions: both partners purified.
In data set [5] the target is T4, human Rock1 707–946, 865EE866 to alanine (human, UniProt Q13464 707-946, 865EE866 alanine substitutions).
T4 construct: source: E. coli BL21(DE3) codon plus (RIPL), purified; not shown: His6, N-terminal, cleaved
T4 sequence (looked up): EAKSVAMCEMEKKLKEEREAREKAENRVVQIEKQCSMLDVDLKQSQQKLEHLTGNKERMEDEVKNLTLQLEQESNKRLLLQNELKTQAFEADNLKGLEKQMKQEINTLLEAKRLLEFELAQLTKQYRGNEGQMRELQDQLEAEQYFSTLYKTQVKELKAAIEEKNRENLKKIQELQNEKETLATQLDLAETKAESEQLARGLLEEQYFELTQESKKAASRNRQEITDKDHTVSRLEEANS
The description is as above. To be noted: both partners purified.

In data set [6] the target is T5, His6-tagged human Rock1 707–913 (human, UniProt Q13464 707-913).
T5 construct: source: E. coli BL21(DE3) codon plus (RIPL), purified; not shown: His6, N-terminal, kept
T5 sequence (looked up): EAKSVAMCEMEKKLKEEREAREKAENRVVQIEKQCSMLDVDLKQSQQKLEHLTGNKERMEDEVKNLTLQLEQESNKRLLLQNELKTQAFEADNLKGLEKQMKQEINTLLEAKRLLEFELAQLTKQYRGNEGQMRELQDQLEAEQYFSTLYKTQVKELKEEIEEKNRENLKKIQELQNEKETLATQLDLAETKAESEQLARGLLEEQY
In words: pull-down; 25 µg purified His-tagged Rock1 fragment on nickel beads, 2x molar excess of untagged Shrm2 SD2, 10 min room temperature; 2% glycerol, 100 mM NaCl, 7 mM imidazole, 1 mM β-mercaptoethanol, 20 mM Tris pH 8.0; SDS-PAGE, Coomassie. To be noted: both partners purified.

For data set [7], the target named is B4. The experiment in a line: fluorescence polarisation; fluorescence anisotropy; 20 nM (legends: 50 nM) N-terminally Oregon Green 488-labelled Shrm2 SD2, increasing concentrations of Rock1 SBD; 20 mM Hepes pH 7.4, 100 mM NaCl, 5% glycerol; single binding model. To be noted: both partners purified. On the technique in general: Fluorescence polarisation rises when a labelled molecule tumbles more slowly, as on binding a larger partner.

Data set [8] deals with human Rock1 707–946, 900ESE902 to alanine (human, UniProt Q13464 707-946, 900ESE902 alanine substitutions). The experiment in a line: FP.
Data set [9] has as its target T3, human Rock1 707–946, wild type. The experiment in a line: fluorescence polarisation; fluorescence anisotropy; 20 nM (legends: 50 nM) N-terminally Oregon Green 488-labelled Shrm2 SD2, increasing concentrations of Rock1 SBD; 20 mM Hepes pH 7.4, 100 mM NaCl, 5% glycerol; single binding model. Conditions: both partners purified.
Data set [10] concerns the molecule itself. The experiment in a line: cross-linking; 0.002% glutaraldehyde, 25 min, 26 µM protein; 25 mM HEPES pH 7.5, 8% glycerol, 500 mM NaCl, 5 mM β-ME; SDS-PAGE, Coomassie.
The target in data set [11] is B2. In words: pull-down; 25 µg purified His-tagged Rock1 fragment on nickel beads, 2x molar excess of untagged Shrm2 SD2, 10 min room temperature; 2% glycerol, 100 mM NaCl, 7 mM imidazole, 1 mM β-mercaptoethanol, 20 mM Tris pH 8.0; SDS-PAGE, Coomassie. To be noted: both partners purified.

B1: human Rock1 707–946, wild type (domain or fragment)
chain: EAKSVAMCEMEKKLKEEREAREKAENRVVQIEKQCSMLDVDLKQSQQKLEHLTGNKERMEDEVKNLTLQLEQESNKRLLLQNELKTQAFEADNLKGLEKQMKQEINTLLEAKRLLEFELAQLTKQYRGNEGQMRELQDQLEAEQYFSTLYKTQVKELKEEIEEKNRENLKKIQELQNEKETLATQLDLAETKAESEQLARGLLEEQYFELTQESKKAASRNRQEITDKDHTVSRLEEANS
Broadly, the Kd is the constant that tells how readily two partners part at equilibrium. Low readings indicate tighter binding, high ones weaker binding. Consider B1, for which binding in data set [1] was characterised by a dissociation constant (Kd) of 1.7 µM. B2: the binding result in [2], in [3], in data set [4], in data set [5] and in data set [6] was “binds” each time. Turning to B3, the “fold decrease in binding affinity against wild type” value in [7] is roughly 5.5 fold. The molecule B4 yielded a Kd in [8] of 9.3 µM. In data set [9], the binding result is recorded as “binds”.

B5: human Rock1 SBD (834–913), wild type (domain or fragment, UniProt Q13464 834-913, looked up)
chain: GNEGQMRELQDQLEAEQYFSTLYKTQVKELKEEIEEKNRENLKKIQELQNEKETLATQLDLAETKAESEQLARGLLEEQY
notes: PDB 4L2W holds the same limits with the SER mutation 884EKE886 to AAA; also called WT SBD; not shown: His6, N-terminal, cleaved
One may read the stoichiometry N as a count of units in the complex or per binding partner. For the molecule B5, in data set [10], the “stoichiometry N” value turned out to be 2. Further, in [7], the binding result is on record as “binds”. The affinity in data set [1], expressed as Kd, was 5.3 µM.

B6: His6-tagged human Rock1 834–913 (domain or fragment, UniProt Q13464 834-913, looked up)
chain: GNEGQMRELQDQLEAEQYFSTLYKTQVKELKEEIEEKNRENLKKIQELQNEKETLATQLDLAETKAESEQLARGLLEEQY
notes: PDB 4L2W holds the same limits with the SER mutation 884EKE886 to AAA; source: E. coli BL21(DE3) codon plus (RIPL), purified; not shown: His6, N-terminal, kept
As to B6, in data set [11], the binding result is listed as “binds”.

B7: human Rock1 SBD (834–913) with the surface entropy reduction mutation (SBD^SER) (domain or fragment, UniProt Q13464 834-913, looked up)
chain: GNEGQMRELQDQLEAEQYFSTLYKTQVKELKEEIEEKNRENLKKIQELQNAAATLATQLDLAETKAESEQLARGLLEEQY
notes: A selenomethionine form was used for phasing only; also called Rock1 SBD^SER; SER mutant; not shown: His6, N-terminal, cleaved
Turning to B7, the “stoichiometry N” value in data set [10] came out at 2.

B8: His6-tagged human Rock1 772–913 (domain or fragment, UniProt Q13464 772-913, looked up)
chain: LTLQLEQESNKRLLLQNELKTQAFEADNLKGLEKQMKQEINTLLEAKRLLEFELAQLTKQYRGNEGQMRELQDQLEAEQYFSTLYKTQVKELKEEIEEKNRENLKKIQELQNEKETLATQLDLAETKAESEQLARGLLEEQY
notes: source: E. coli BL21(DE3) codon plus (RIPL), purified; not shown: His6, N-terminal, kept
For B8, in data set [11], the binding result is “binds”.
